{
  "source": "patent US20210030857A1",
  "about": "(NGM BIOPHARMACEUTICALS, published 2021)",
  "binders": {"B1": {"name": "humanized 5H23 antibody (VH SEQ ID NO: 271 and VL SEQ ID NO: 276) (antibody, V domains shown)", "VH": "QVQLQQSGAEVKKPGASVKVSCKASGYTFTSYDINWVRQAPGQGLEWIGWIYPGDGSTKYNEKFKGKATITRDTSASTAYMELSSLRSEDTAVYFCARSDYYGSRSFAYWGQGTLVTVSS", "VL": "DIVMTQSPDSLAVSLGERATINCRASKSVSTSGYVYMHWYQQKPGQPPKLLIYLASYLESGVPDRFSGSGSGTDFTLTISSVQAEDVAVYYCQHSRDLTFPFGGGTKLEIK", "notes": "also called h5H23; h5H23 (Prep 1)"}},
  "key": {"[1]": {"target": "T1, human beta klotho mutant H657A on HEK-293T cells (human, UniProt Q86Z14 1-1044)", "T1 sequence": "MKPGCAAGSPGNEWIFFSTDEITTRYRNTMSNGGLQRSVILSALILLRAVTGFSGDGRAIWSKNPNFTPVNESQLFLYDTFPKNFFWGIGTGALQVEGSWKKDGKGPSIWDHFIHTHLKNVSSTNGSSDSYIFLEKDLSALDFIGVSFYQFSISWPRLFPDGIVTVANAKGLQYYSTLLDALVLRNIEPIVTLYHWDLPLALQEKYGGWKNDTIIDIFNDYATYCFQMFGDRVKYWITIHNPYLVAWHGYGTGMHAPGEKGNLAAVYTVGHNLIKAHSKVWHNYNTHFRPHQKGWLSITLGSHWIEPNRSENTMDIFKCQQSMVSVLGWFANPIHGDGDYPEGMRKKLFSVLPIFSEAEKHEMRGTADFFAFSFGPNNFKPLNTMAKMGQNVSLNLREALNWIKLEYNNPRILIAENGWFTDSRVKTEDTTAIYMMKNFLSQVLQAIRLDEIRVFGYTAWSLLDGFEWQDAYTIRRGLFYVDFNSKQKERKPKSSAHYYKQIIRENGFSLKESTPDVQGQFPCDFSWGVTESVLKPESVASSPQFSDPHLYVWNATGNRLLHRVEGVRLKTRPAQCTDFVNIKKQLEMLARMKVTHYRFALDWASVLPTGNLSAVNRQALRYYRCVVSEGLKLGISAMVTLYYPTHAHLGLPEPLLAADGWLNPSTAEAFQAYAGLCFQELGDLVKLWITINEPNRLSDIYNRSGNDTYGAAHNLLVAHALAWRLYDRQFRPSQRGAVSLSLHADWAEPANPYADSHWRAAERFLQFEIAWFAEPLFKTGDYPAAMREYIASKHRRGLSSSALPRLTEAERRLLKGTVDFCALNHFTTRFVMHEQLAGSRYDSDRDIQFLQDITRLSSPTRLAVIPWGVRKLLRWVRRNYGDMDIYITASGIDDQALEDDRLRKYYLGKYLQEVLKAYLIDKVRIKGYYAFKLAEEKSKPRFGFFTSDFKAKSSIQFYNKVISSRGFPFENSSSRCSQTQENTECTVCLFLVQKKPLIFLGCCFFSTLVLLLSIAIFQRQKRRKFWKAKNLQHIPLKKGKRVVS", "experiment": "shotgun alanine mutagenesis, FACS on HEK-293T cells, antibody 0.5 µg/ml", "description": "(§1) In order to further identify specific binding residues within human beta klotho KL2 domain, shotgun mutagenesis was used to separately mutate individual residues of the KL2 domain of human beta klotho to an alanine (e.g., residues F508A-L1008A). […] For example, screening of the beta klotho mutant proteins was conducted at a concentration of 0.5 μg/ml for the humanized 5H23 antibody, 1.0 μg/ml for the Fab fragment, and 2.0 μg/ml for a positive control polyclonal anti-beta klotho antibodies.\n(§2) The resulting mapping identified three specific binding residues, H657, Y701 and R703, which were negative for binding by the humanized 5H23 antibody, but were positive for the control polyclonal anti-beta klotho antibodies. These residues represented amino acids whose side changes made the highest energetic contributions to the antibody-epitope interation as shown in Table 31. The locations of the three identified residues were modeled by showing them (dark spheres) at the equivalent positions on human cytosolic beta-glucosidase (PDB ID #2JFE; Tribolo et al., J. Mol. Biol. 370, 964-975 (2007)), identified by BLAST alignment of the two proteins as shown in FIG. 6."}, "[2]": {"target": "T2, human beta klotho mutant Y701A on HEK-293T cells (human, UniProt Q86Z14 1-1044)", "T2 sequence": "T1 sequence with A657H, Y701A", "experiment": "shotgun alanine mutagenesis, FACS on HEK-293T cells, antibody 0.5 µg/ml", "description": "as §1, §2"}},
  "note": "Numbering of substitutions follows the chain as printed.",
  "data": [
    {"binder": "B1", "values": [
      {"measurement": "Binding Reactivity (% WT)", "setting": "[1]", "value": 16.9, "unit": "% WT"},
      {"measurement": "Binding Reactivity (% WT)", "setting": "[2]", "value": 0.64, "unit": "% WT"}
    ]}
  ]
}
